Measurements from the Human Domainome abundance scans (Beltran et al. 2025).
± gives the uncertainty stated by the source.

B1: Ankyrin-1, residues 1405 to 1484; numbered along this chain, P16157 (parent)
chain: MKMAVISEHLGLSWAELARELQFSVEDINRIRVENPNSLLEQSVALLNLWVIREGQNANMENLYTALQSIDRGEIVNMLE
B2: Cyclin-F, residues 28 to 80; numbered along this chain, P41002 (parent)
chain: RNLTILSLPEDVLFHILKWLSVEDILAVRAVHSQLKDLVDNHASVWACASFQE

Variants of: B1
Experiment: abundance fitness (aPCA) (normalised: wild type 0, dead -1); higher = more abundant; growth selection in yeast, the domain comes from the species named
Settings: Homo sapiens

Abundance fitness, by site and new letter:
L47: E -0.874 ± 0.22
I31: R -0.647 ± 0.083
V25: L -0.073 ± 0.036, P 0.018 ± 0.076, K -0.005 ± 0.11
N59: A -0.047 ± 0.078, D 0.245 ± 0.11, R 0.034 ± 0.053, T -0.338 ± 0.16
W50: Q -0.708 ± 0.39
I28: A -0.522 ± 0.066
N77: S -0.005 ± 0.073, M -0.152 ± 0.12, L -0.043 ± 0.07, E -0.111 ± 0.11

Variants of: B2
Experiment: as above
Settings: Homo sapiens

Abundance fitness, by site and new letter:
T4: V -0.997 ± 0.15, Y -0.85 ± 0.29, N -0.046 ± 0.14, S 0.087 ± 0.093, W -0.65 ± 0.14, Q -0.481 ± 0.15, H -0.059 ± 0.14, K -0.611 ± 0.22, I -0.866 ± 0.23, A -0.768 ± 0.13, D -0.076 ± 0.11, R -0.735 ± 0.1, L -0.836 ± 0.13, M -0.695 ± 0.17, G -0.068 ± 0.082, C -0.55 ± 0.17, E -0.605 ± 0.15
L3: G -0.435 ± 0.079, K -0.354 ± 0.16, A -0.708 ± 0.13, I -0.112 ± 0.17, S -0.09 ± 0.098, F -0.078 ± 0.17, E -0.727 ± 0.16, W -0.596 ± 0.1, H -0.283 ± 0.15, M -0.276 ± 0.13, Q -0.863 ± 0.31, D -0.598 ± 0.21, Y 0.109 ± 0.18, R -0.134 ± 0.077, N -0.337 ± 0.2, C -0.316 ± 0.094, T -0.437 ± 0.15, P -0.322 ± 0.13
P9: N -0.882 ± 0.33, Y -0.932 ± 0.18, G -0.413 ± 0.081, I -0.847 ± 0.28, F -0.621 ± 0.15, C -0.676 ± 0.15, V -0.59 ± 0.11, S -0.672 ± 0.11, R -0.692 ± 0.088, M -1.04 ± 0.21, K -0.818 ± 0.15, E -0.646 ± 0.12, A -0.778 ± 0.11, T -0.69 ± 0.14, D -0.541 ± 0.16, H -0.949 ± 0.19, Q -0.735 ± 0.14
S7: P -0.767 ± 0.17, Y -0.869 ± 0.22, M -0.195 ± 0.14, D 0.101 ± 0.13, E -0.27 ± 0.11, I -0.426 ± 0.2, T -0.381 ± 0.13, N -0.118 ± 0.13, F -0.547 ± 0.14, G -0.31 ± 0.076, W -0.693 ± 0.12, C -0.316 ± 0.12, Q -0.232 ± 0.13, V -0.647 ± 0.11, L -0.647 ± 0.1, H -0.242 ± 0.15, A -0.427 ± 0.1
